Data on 4 molecules can be found in patent US20220089722A1 (published 2022).

The target of test [1] is T1, hEGFR-6-his (SinoBiological) (human, UniProt P00533 25-645). The test can be described thus: ELISA. (An ELISA detects its analyte on a solid surface through an enzyme-linked reagent.)
The target of test [2] is T1, hEGFR-6-his (SinoBiological). The test can be described thus: ELISA; printed value although curve is flat.

B1: IgFD-26(anti-CD3/EGFR) (bispecific antibody)
chain 1: not shown
chain 2: QAVVTQEPSLTVSPGGTVTLTCRSSTGAVTTSNYANWVQQKPDHLFRGLIGGTNKRAPGTPARFSGSLLGDKAALTISGAQPEDEAEYYCALWYSNLWVFGGGTKLTVLKRTVAAPSVFIFPPSDEQLKSGTASVVCLLNNFYPREAKVQWKVDNALQSGNSQESVTEQDSKDSTYSLSSTLTLSKADYEKHKVYACEVTHQGLSSPVTKSFNRGECDKTHTCPPCPAPELLGGPSVFLFPPKPKDTLMISRTPEVTCVVVDVSHEDPEVKFNWYVDGVEVHNAKTKPREEQYASTYRVVSVLTVLHQDWLNGKEYKCKVSNKALPAPIEKTISKAKGQPREPQVCTLPPSREEMTKNQVSLSCAVKGFYPSDIAVEWESNGQPENNYKTTPPVLDSDGSFFLVSKLTVDKSRWQQGNVFSCSVMHEALHNHYTQKSLSLSPGKGGSGGSGGGGSGGGGSDIQMTQSPSSLSASVGDRVTITCQASQDISNYLNWYQQKPGKAPKLLIYDASNLETGVPSRFSGSGSGTDFTFTISSLQPEDIATYFCQHFDHLPLAFGGGTKVEIKGGGGSGGGGSGGGGSQVQLQESGPGLVKPSETLSLTCTVSGGSVSSGDYYWTWIRQSPGKGLEWIGHIYYSGNTNYNPSLKSRLTISIDTSKTQFSLKLSSVTAADTAIYYCVRDRVTGAFDIWGQGTMVTVSS
Broadly, the Kd is the constant that tells how readily two partners part at equilibrium. A higher Kd goes with weaker binding. Turning to B1, binding in test [1] was characterised by a dissociation constant (Kd) of 0.139 nM. This counts as sub-nanomolar.

B2: IgFD-31(anti-CD3/EGFR) (bispecific antibody)
chain 1: EVQLVESGGGLVQPGGSLRLSCAASGFTFNTYAMNWVRQAPGKGLEWVARIRSKYNNYATYYADSVKDRFTISRDDSKNTLYLQMNSLRAEDTAVYYCVRHGNFGNSYVSWFAYWGQGTLVTVSSASTKGPSVFPLAPSSKSTSGGTAALGCLVKDYFPEPVTVSWNSGALTSGVHTFPAVLQSSGLYSLSSVVTVPSSSLGTQTYICNVNHKPSNTKVDKKVEPKSCGGSGAKLAALKAKLAALKGGGGSDKTHTCPPCPAPPVAGPSVFLFPPKPKDTLMISRTPEVTCVVVDVSHEDPEVKFNWYVDGVEVHNAKTKPREEQYNSTYRVVSVLTVLHQDWLNGKEYKCKVSNKGLPSSIEKTISKAKGQPREPQVYTLPPSRDELTKNQVSLTCLVKGFYPSDIAVEWESNGQPENNYKTTPPVLDSDGSFFLYSKLTVDKSRWQQGNVFSCSVMHEALHNHYTQKSLSLSPGK
chain 2: QAVVTQEPSLTVSPGGTVTLTCRSSTGAVTTSNYANWVQQKPDHLFRGLIGGTNKRAPGTPARFSGSLLGDKAALTISGAQPEDEAEYYCALWYSNLWVFGGGTKLTVLKRTVAAPSVFIFPPSDEQLKSGTASVVCLLNNFYPREAKVQWKVDNALQSGNSQESVTEQDSKDSTYSLSSTLTLSKADYEKHKVYACEVTHQGLSSPVTKSFNRGECGGGGSELAALEAELAALEAGGSGDKTHTCPPCPAPPVAGPSVFLFPPKPKDTLMISRTPEVTCVVVDVSHEDPEVKFNWYVDGVEVHNAKTKPREEQYNSTYRVVSVLTVLHQDWLNGKEYKCKVSNKGLPSSIEKTISKAKGQPREPQVYTLPPSRDELTKNQVSLTCLVKGFYPSDIAVEWESNGQPENNYKTTPPVLDSDGSFFLYSKLTVDKSRWQQGNVFSCSVMHEALHNHYTQKSLSLSPGKGGSGGSGGGGSGGGGSDIQMTQSPSSLSASVGDRVTITCQASQDISNYLNWYQQKPGKAPKLLIYDASNLETGVPSRFSGSGSGTDFTFTISSLQPEDIATYFCQHFDHLPLAFGGGTKVEIKGGGGSGGGGSGGGGSQVQLQESGPGLVKPSETLSLTCTVSGGSVSSGDYYWTWIRQSPGKGLEWIGHIYYSGNTNYNPSLKSRLTISIDTSKTQFSLKLSSVTAADTAIYYCVRDRVTGAFDIWGQGTMVTVSS
Consider B2, for which the Kd in test [1] was 0.161 nM.

B3: IgFD-7(anti-CD19/CD3) (bispecific antibody)
chain 1: EVQLVESGGGLVQPGGSLRLSCAASGFTFNTYAMNWVRQAPGKGLEWVARIRSKYNNYATYYADSVKDRFTISRDDSKNTLYLQMNSLRAEDTAVYYCVRHGNFGNSYVSWFAYWGQGTLVTVSSASTKGPSVFPLAPSSKSTSGGTAALGCLVKDYFPEPVTVSWNSGALTSGVHTFPAVLQSSGLYSLSSVVTVPSSSLGTQTYICNVNHKPSNTKVDKKVEPKSCDKTHTCPPCPAPPVAGPSVFLFPPKPKDTLMISRTPEVTCVVVDVSHEDPEVKFNWYVDGVEVHNAKTKPREEQYNSTYRVVSVLTVLHQDWLNGKEYKCKVSNKGLPSSIEKTISKAKGQPREPQVYTLPPSRDELTKNQVSLTCLVKGFYPSDIAVEWESNGQPENNYKTTPPVLDSDGSFFLYSKLTVDKSRWQQGNVFSCSVMHEALHNHYTQKSLSLSPGK
chain 2: QAVVTQEPSLTVSPGGTVTLTCRSSTGAVTTSNYANWVQQKPDHLFRGLIGGTNKRAPGTPARFSGSLLGDKAALTISGAQPEDEAEYYCALWYSNLWVFGGGTKLTVLKRTVAAPSVFIFPPSDEQLKSGTASVVCLLNNFYPREAKVQWKVDNALQSGNSQESVTEQDSKDSTYSLSSTLTLSKADYEKHKVYACEVTHQGLSSPVTKSFNRGECDKTHTCPPCPAPPVAGPSVFLFPPKPKDTLMISRTPEVTCVVVDVSHEDPEVKFNWYVDGVEVHNAKTKPREEQYNSTYRVVSVLTVLHQDWLNGKEYKCKVSNKGLPSSIEKTISKAKGQPREPQVYTLPPSRDELTKNQVSLTCLVKGFYPSDIAVEWESNGQPENNYKTTPPVLDSDGSFFLYSKLTVDKSRWQQGNVFSCSVMHEALHNHYTQKSLSLSPGKSGGGGSGGGGSGGGGSDIQMTQTTSSLSASLGDRVTISCRASQDISKYLNWYQQKPDGTVKLLIYHTSRLHSGVPSRFSGSGSGTDYSLTISNLEQEDIATYFCQQGNTLPYTFGGGTKLEITGGGGSGGGGSGGGGSEVKLQESGPGLVAPSQSLSVTCTVSGVSLPDYGVSWIRQPPRKGLEWLGVIWGSETTYYNSALKSRLTIIKDNSKSQVFLKMNSLQTDDTAIYYCAKHYYYGGSYAMDYWGQGTSVTVSS
Turning to B3, the dissociation constant Kd in test [2] came to 0.161 nM.

B4: IgFD-25(anti-CD3/EGFR) (bispecific antibody)
chain 1: EVQLVESGGGLVQPGGSLRLSCAASGFTFNTYAMNWVRQAPGKGLEWVARIRSKYNNYATYYADSVKDRFTISRDDSKNTLYLQMNSLRAEDTAVYYCVRHGNFGNSYVSWFAYWGQGTLVTVSSASTKGPSVFPLAPSSKSTSGGTAALGCLVKDYFPEPVTVSWNSGALTSGVHTFPAVLQSSGLYSLSSVVTVPSSSLGTQTYICNVNHKPSNTKVDKKVEPKSCDKTHTCPPCPAPPVAGPSVFLFPPKPKDTLMISRTPEVTCVVVDVSHEDPEVKFNWYVDGVEVHNAKTKPREEQYNSTYRVVSVLTVLHQDWLNGKEYKCKVSNKGLPSSIEKTISKAKGQPREPQVYTLPPCRDELTKNQVSLWCLVKGFYPSDIAVEWESNGQPENNYKTTPPVLDSDGSFFLYSKLTVDKSRWQQGNVFSCSVMHEALHNHYTQKSLSLSPGK
chain 2: QAVVTQEPSLTVSPGGTVTLTCRSSTGAVTTSNYANWVQQKPDHLFRGLIGGTNKRAPGTPARFSGSLLGDKAALTISGAQPEDEAEYYCALWYSNLWVFGGGTKLTVLKRTVAAPSVFIFPPSDEQLKSGTASVVCLLNNFYPREAKVQWKVDNALQSGNSQESVTEQDSKDSTYSLSSTLTLSKADYEKHKVYACEVTHQGLSSPVTKSFNRGECDKTHTCPPCPAPPVAGPSVFLFPPKPKDTLMISRTPEVTCVVVDVSHEDPEVKFNWYVDGVEVHNAKTKPREEQYNSTYRVVSVLTVLHQDWLNGKEYKCKVSNKGLPSSIEKTISKAKGQPREPQVCTLPPSRDELTKNQVSLSCAVKGFYPSDIAVEWESNGQPENNYKTTPPVLDSDGSFFLVSKLTVDKSRWQQGNVFSCSVMHEALHNHYTQKSLSLSPGKGGSGGSGGGGSGGGGSDIQMTQSPSSLSASVGDRVTITCQASQDISNYLNWYQQKPGKAPKLLIYDASNLETGVPSRFSGSGSGTDFTFTISSLQPEDIATYFCQHFDHLPLAFGGGTKVEIKGGGGSGGGGSGGGGSQVQLQESGPGLVKPSETLSLTCTVSGGSVSSGDYYWTWIRQSPGKGLEWIGHIYYSGNTNYNPSLKSRLTISIDTSKTQFSLKLSSVTAADTAIYYCVRDRVTGAFDIWGQGTMVTVSS
Molecule B4 had a Kd in test [1] of 0.15 nM.
